Measured values taken from patent publication US20080267980A1 (published 2008).
Like-named read-outs stand apart in the source and are kept apart here.

Columns and labels:
Assay in all cases: SPR
[1] = target: T1, Human C3dg-biotin (human, UniProt P01024 955-1303, biotin (site not stated) in the SPR experiments)
[2] = target: T1, Human C3dg-biotin; remark: listed apart in the source
[3] = target: T1, Human C3dg-biotin; remark: listed apart in the source
[4] = target: T1, Human C3dg-biotin; remark: listed apart in the source

T1 sequence (P01024 955-1303): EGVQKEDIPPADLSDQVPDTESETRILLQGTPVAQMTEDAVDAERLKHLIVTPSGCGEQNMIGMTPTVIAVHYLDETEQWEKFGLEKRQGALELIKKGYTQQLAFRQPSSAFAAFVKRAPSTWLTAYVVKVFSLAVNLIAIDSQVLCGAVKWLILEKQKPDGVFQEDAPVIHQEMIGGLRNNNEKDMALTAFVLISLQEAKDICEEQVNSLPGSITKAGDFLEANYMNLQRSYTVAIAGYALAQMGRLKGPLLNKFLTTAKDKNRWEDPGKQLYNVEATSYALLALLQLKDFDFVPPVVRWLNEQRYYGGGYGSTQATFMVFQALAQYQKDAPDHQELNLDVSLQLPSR

B1: CD59-CR2 (other)
chain: LQCYNCPNPTADCKTAVNCSSDFDACLITKAGLQVYNKCWKFEHCNFNDVTTRLRENELTYYCCKKDLCNFNEQLENSSGGGGSGGGGSGGGGSISCGSPPPILNGRISYYSTPIAVGTVIRYSCSGTFRLIGEKSLLCITKDKVDGTWDKPAPKCEYFNKYSSCPEPIVPGGYKIRGSTPYRHGDSVTFACKTNFSMNGNKSVWCQANNMWGPTRLPTCVSVFPLECPALPMIHNGHHTSENVGSIAPGLSVTYSCESGYLLVGEKIINCLSSGKWSAVPPTCEEARCKSLGRFPNGKVKEPPILRVGVTANFFCDEGYRLQGPPSSRC
- Kd [1]: 451 nM

B2: CR2-CD59 (other)
chain: ISCGSPPPILNGRISYYSTPIAVGTVIRYSCSGTFRLIGEKSLLCITKDKVDGTWDKPAPKCEYFNKYSSCPEPIVPGGYKIRGSTPYRHGDSVTFACKTNFSMNGNKSVWCQANNMWGPTRLPTCVSVFPLECPALPMIHNGHHTSENVGSIAPGLSVTYSCESGYLLVGEKIINCLSSGKWSAVPPTCEEARCKSLGRFPNGKVKEPPILRVGVTANFFCDEGYRLQGPPSSRCVIAGQGVAWTKMPVCSGGGGSLQCYNCPNPTADCKTAVNCSSDFDACLITKAGLQVYNKCWKFEHCNFNDVTTRLRENELTYYCCKKDLCNFNEQLEN
- Kd [2]: 15.5 nM

B3: DAF-CR2 (other)
chain: DCGLPPDVPNAQPALEGRTSFPEDTVITYKCEESFVKIPGEKDSVICLKGSQWSDIEEFCNRSCEVPTRLNSASLKQPYITQNYFPVGTVVEYECRPGYRREPSLSPKLTCLQNLKWSTAVEFCKKKSCPNPGEIRNGQIDVPGGILFGATISFSCNTGYKLFGSTSSFCLISGSSVQWSDPLPECREIYCPAPPQIDNGIIQGERDHYGYRQSVTYACNKGFTMIGEHSIYCTVNNDEGEWSGPPPECRSSGGGGSGGGGSGGGGSISCGSPPPILNGRISYYSTPIAVGTVIRYSCSGTFRLIGEKSLLCITKDKVDGTWDKPAPKCEYFNKYSSCPEPIVPGGYKIRGSTPYRHGDSVTFACKTNFSMNGNKSVWCQANNMWGPTRLPTCVSVFPLECPALPMIHNGHHTSENVGSIAPGLSVTYSCESGYLLVGEKIINCLSSGKWSAVPPTCEEARCKSLGRFPNGKVKEPPILRVGVTANFFCDEGYRLQGPPSSRCVIAGQGVAWTKMPVC
- Kd [3]: 2600 nM

B4: CR2-DAF (other)
chain: ISCGSPPPILNGRISYYSTPIAVGTVIRYSCSGTFRLIGEKSLLCITKDKVDGTWDKPAPKCEYFNKYSSCPEPIVPGGYKIRGSTPYRHGDSVTFACKTNFSMNGNKSVWCQANNMWGPTRLPTCVSVFPLECPALPMIHNGHHTSENVGSIAPGLSVTYSCESGYLLVGEKIINCLSSGKWSAVPPTCEEARCKSLGRFPNGKVKEPPILRVGVTANFFCDEGYRLQGPPSSRCVIAGQGVAWTKMPVCGGGSGGGGSDCGLPPDVPNAQPALEGRTSFPEDTVITYKCEESFVKIPGEKDSVICLKGSQWSDIEEFCNRSCEVPTRLNSASLKQPYITQNYFPVGTVVEYECRPGYRREPSLSPKLTCLQNLKWSTAVEFCKKKSCPNPGEIRNGQIDVPGGILFGATISFSCNTGYKLFGSTSSFCLISGSSVQWSDPLPECREIYCPAPPQIDNGIIQGERDHYGYRQSVTYACNKGFTMIGEHSIYCTV
- Kd [4]: 129 nM
